Laboratory results published in patent US20250171545A1.

Molecular target: hFGFR1c and hKLB co-expressed on HEK293 cells (human) (UniProt P11362)
Assay: cell-based or functional assay

- % activation, SRE-luciferase reporter, normalized against soluble FGF21: 19%
Substance: REGN4366 (bispecific antibody)
